Reference: publication PMC5452035, “Structural insight into recognition of phosphorylated threonine‐4 of RNA polymerase II C‐terminal domain by Rtt103p” (EMBO Reports, 2017)
Numbering of substitutions follows the chain as printed. Non-standard residues stand in square brackets, D forms with d. No end group written: not given here. pT = C[C@@H](OP(=O)(O)O)[C@H](N)C(=O)O; pS = N[C@@H](COP(=O)(O)O)C(=O)O; FAM = 5,6-carboxyfluorescein

T1: Rtt103p CID Arg108Asn mutant (yeast, UniProt Q05543 3-131, Arg108Asn)
T1 sequence (looked up): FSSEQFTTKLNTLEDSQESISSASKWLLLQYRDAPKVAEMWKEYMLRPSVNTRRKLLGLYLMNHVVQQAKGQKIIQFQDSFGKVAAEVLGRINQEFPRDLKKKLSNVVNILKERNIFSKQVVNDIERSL

T2: Rtt103p CID Lys72Glu mutant (yeast, UniProt Q05543 3-131, Lys72Glu)
T2 sequence (looked up): T1 sequence (looked up) with K70E, N106R

T3: Rtt103p CID Arg116Glu mutant (yeast, UniProt Q05543 3-131, Arg116Glu)
T3 sequence (looked up): T1 sequence (looked up) with N106R, R114E

T4: Rtt103p CTD-interacting domain (CID) (3-131-6xHIS) (yeast, UniProt Q05543 3-131)
T4 construct: Used unlabelled for fluorescence anisotropy and the 13C-HSQC titration, 15N-labelled for the TROSY titration and 15N,13C-labelled for the structure; also called Rtt103p CID; Rtt103 CID
T4 sequence (looked up): T1 sequence (looked up) with N106R

B1: FAM-PSY(pS)PTSPSYSPTSPS (peptide)
peptide: {FAM}-PSY[pS]PTSPSYSPTSPS
notes: consensus heptad repeats (Tyr1-Ser2-Pro3-Thr4-Ser5-Pro6-Ser7) of the C-terminal domain of the largest subunit of RNA polymerase II (Rpb1); residues named by heptad position and repeat letter (P6a ... S7c); also called pSer2-CTD; FAM-pSer2 CTD; source: synthetic peptide (JPT, Berlin, or Clonestar, Brno)
B2: FAM-PSYSP(pT)SPSYSPTSPS (peptide)
peptide: {FAM}-PSYSP[pT]SPSYSPTSPS
notes: consensus heptad repeats of the C-terminal domain of the largest subunit of RNA polymerase II (Rpb1); residues named by heptad position and repeat letter (P6a ... S7c); also called pThr4-CTD; FAM-pThr4 CTD; source: synthetic peptide (JPT, Berlin, or Clonestar, Brno)
B3: FAM-PSYSP(pT)SPSYS (peptide)
peptide: {FAM}-PSYSP[pT]SPSYS
notes: consensus heptad repeats of the C-terminal domain of the largest subunit of RNA polymerase II (Rpb1); residues named by heptad position and repeat letter (P6a ... S2c); source: synthetic peptide (JPT, Berlin, or Clonestar, Brno)

Key:
Test in all cases: fluorescence polarisation; fluorescence anisotropy; Rtt103p CID titrated into 10 nM N-terminally FAM-labelled CTD peptide; 10°C; 35 mM KH2PO4, 100 mM KCl, pH 6.8; 1:1 model with non-specific binding (DynaFit)
Settings in all cases: both partners purified
[1] = biological target: T1, Rtt103p CID Arg108Asn mutant
[2] = biological target: T2, Rtt103p CID Lys72Glu mutant
[3] = biological target: T3, Rtt103p CID Arg116Glu mutant
[4] = biological target: T4, Rtt103p CTD-interacting domain (CID) …

Binder	Kd [1] [µM]	Kd [2] [µM]	Kd [3] [µM]	Kd [4] [µM]
B1	44	–	–	–
B2	38	54	107	–
B3	–	–	–	18
